Source: patent US20260284244 (published 2026)

T1: La/SSB N-terminal domain (La-NTD) (human, UniProt P05455)
T1 chain: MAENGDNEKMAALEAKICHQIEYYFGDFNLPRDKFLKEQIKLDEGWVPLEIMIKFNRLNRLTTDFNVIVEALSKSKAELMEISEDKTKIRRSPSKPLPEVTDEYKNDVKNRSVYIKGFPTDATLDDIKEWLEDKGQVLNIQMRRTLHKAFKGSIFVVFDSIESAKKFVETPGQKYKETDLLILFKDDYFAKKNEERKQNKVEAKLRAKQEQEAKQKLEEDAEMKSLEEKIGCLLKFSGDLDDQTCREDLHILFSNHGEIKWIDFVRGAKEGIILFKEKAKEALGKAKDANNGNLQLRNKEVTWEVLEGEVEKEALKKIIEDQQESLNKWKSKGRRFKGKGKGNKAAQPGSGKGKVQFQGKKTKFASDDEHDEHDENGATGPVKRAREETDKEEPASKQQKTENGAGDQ


Biological target: T1, La/SSB N-terminal domain (La-NTD)
Assay: SPR

Row | Binder | Kd
1 | VH3/VK6_K322A (antibody, V domains shown) VH: EVQLVQSGAEVKKPGASVKVSCKASGYAFTHYYIYWIRQAPGQGLEWMGGVNPSSGGTHYAEKFQGRVTLTVDTSSSTAYMELSSLRSEDTAVYYCTRSEYDYGLGFAYWGQGTLVTVSS VL: DIVMTQSPLSLPVTPGEPASISCRSSQSLLSSRTPKNYLAWYQQKPGQSPQLLIYWASTRKSGVPDRFSGSGSGTDFTLKISRVEAEDVGVYYCKQSYNLLTFGQGTKLEIK | 13.6 nM
2 | VH3/VK6_K322A_RadMab (antibody, V domains shown) VH: EVQLVQSGAEVKKPGASVKVSCKASGYAFTHYYIYWIRQAPGQGLEWMGGVNPSSGGTHYAEKFQGRVTLTVDTSSSTAYMELSSLRSEDTAVYYCTRSEYDYGLGFAYWGQGTLVTVSS VL: DIVMTQSPLSLPVTPGEPASISCRSSQSLLSSRTPKNYLAWYQQKPGQSPQLLIYWASTRKSGVPDRFSGSGSGTDFTLKISRVEAEDVGVYYCKQSYNLLTFGQGTKLEIKR | 8.27 nM
3 | VH6/VK8_K322A (antibody, V domains shown) VH: EVQLVQSGAEVKKPGASVKVSCKASGYAFTHYYIYWIKQAPGQGLEWIGGVNPSNGGTHFNEKFKSRVTITVDKSASTAYMELSSLRSEDTAVYYCTRSEYDYGLGFAYWGQGTLVTVSS VL: EIVMTQSPDSLAVSLGERATINCKSSQSLLNSRTPKNYLAWYQQKPGQPPKLLIYWASTRESGVPDRFTGSGSGTDFTLTISSLQAEDVAVYYCKQSYNLLTFGQGTKLEIK | 14.5 nM

More lines, now with the values ahead:

Row | Kd | Binder
4 | 18.2 nM | chAPOMAB_VH0/VK0_K322A (antibody, V domains shown) VH: EVQLQQPGAELVKPGASVKLSCKASGYAFTHYYIYWIKQRPGQGLEWIGGVNPSNGGTHFNEKFKSKATLTVDKSSSTAYMQLSSLTSEDSAVYYCTRSEYDYGLGFAYWGQGTLLTVSS VL: EIVMSQSPSSLAVSAGEKVTMSCKSSQSLLNSRTPKNYLAWYQQKPGQSPKLLIYWASTRKSGVPDRFTGSGSGTDFTLTISSVQAEDLAVYYCKQSYNLLTFGAGTKLEL
5 | 8.72 nM | VH6/VK8_K322A_RadMab (antibody, V domains shown) VH: EVQLVQSGAEVKKPGASVKVSCKASGYAFTHYYIYWIKQAPGQGLEWIGGVNPSNGGTHFNEKFKSRVTITVDKSASTAYMELSSLRSEDTAVYYCTRSEYDYGLGFAYWGQGTLVTVSS VL: EIVMTQSPDSLAVSLGERATINCKSSQSLLNSRTPKNYLAWYQQKPGQPPKLLIYWASTRESGVPDRFTGSGSGTDFTLTISSLQAEDVAVYYCKQSYNLLTFGQGTKLEIKR
